Measurements published in patent US7658917 (PRAECIS PHARMACEUTICALS, dated 2010).
Where two headings read alike, the source gives them in different places. Ends that are not written are not given here. * marks the point of attachment. Cholyl = C[C@H](CCC(=O)*)[C@H]1CC[C@H]2[C@@H]3[C@H](O)C[C@@H]4C[C@H](O)CC[C@]4(C)[C@H]3C[C@H](O)[C@]12C

Assays:
Assay in all cases: cell-based or functional assay
[1] = target: natural β-amyloid peptide β-AP1-40 (human)
[2] = target: natural β-amyloid peptide β-AP1-40 (human); remark: listed apart in the source
[3] = target: natural β-amyloid peptide β-AP1-40 (human); remark: listed apart in the source
[4] = target: natural β-amyloid peptide β-AP1-40 (human); remark: listed apart in the source
Target sequence in this assay (peptide, as listed by the source): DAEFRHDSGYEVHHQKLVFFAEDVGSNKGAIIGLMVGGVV

[5] = target: natural β-amyloid peptide β-AP1-40 (human); remark: listed apart in the source
Target sequence in this assay (peptide, as listed by the source): as above

## DAEFRHDSGYEVHHQAEDVGSNKGAIIGLMVGGVV [Aβ1-15, 21-40(Δ16-20)]
[1]
  % Inhibition of Plateau; nucleation assay; 100 mole %: ~0%
  Fold Increase in Lag Time; nucleation assay; 100 mole %: 1.55 fold

## DAEFRHDSGYKLVFFAEDVGSNKGAIIGLMVGGVV [Aβ1-10, 16-40(Δ11-15)]
[1]
  % Inhibition of Plateau; nucleation assay; 100 mole %: ~0%
  Fold Increase in Lag Time; nucleation assay; 100 mole %: ~1.2 fold

## KLVFFAEDVGSNKGA [unmodified Aβ16-30]
[1]
  % Inhibition of Plateau; nucleation assay; 100 mole %: 100%
  Fold Increase in Lag Time; nucleation assay; 100 mole %: > 4.5 fold

## Cholyl-HHQKLVFF [cholyl-Aβ13-20]
[2]
  % Inhibition of Plateau; nucleation assay; 33 mole %: ~0%
  Fold Increase in Lag Time; nucleation assay; 33 mole %: 2.6 fold
[3]
  % Inhibition of Plateau; nucleation assay; 10 mole %: 57%
  Fold Increase in Lag Time; nucleation assay; 10 mole %: 2.2 fold

## Cholyl-HDSGYEVHHQKLVFF [cholyl-Aβ6-20]
[2]
  % Inhibition of Plateau; nucleation assay; 100 mole %: 100%
  Fold Increase in Lag Time; nucleation assay; 10 mole %: 2 fold
  Fold Increase in Lag Time; nucleation assay; 100 mole %: > 4.5 fold
[4]
  % Inhibition of Plateau; nucleation assay; 100 mole %: 100%
  Fold Increase in Lag Time; nucleation assay; 100 mole %: > 4.5 fold
[3]
  % Inhibition of Plateau; nucleation assay; 10 mole %: 43%
  Fold Increase in Lag Time; nucleation assay; 10 mole %: 2 fold

## EVHHQKLVFFAEDVG [unmodified Aβ11-25]
[1]
  % Inhibition of Plateau; nucleation assay; 100 mole %: 47%
  Fold Increase in Lag Time; nucleation assay; 100 mole %: ~1 fold

## SNKGAIIGLMVGGVV [unmodified Aβ26-40]
[1]
  % Inhibition of Plateau; nucleation assay; 100 mole %: ~0%
  Fold Increase in Lag Time; nucleation assay; 100 mole %: 0.8 fold

## HDSGYEVHHQKLVFF [unmodified Aβ6-20]
[1]
  % Inhibition of Plateau; nucleation assay; 100 mole %: 76%
  Fold Increase in Lag Time; nucleation assay; 100 mole %: 1.66 fold

B1: cholyl-Aβ15-20 (peptide)
peptide: Cholyl-QKLVFF-OH
SMILES: CC(C)C[C@H](NC(=O)[C@H](CCCCN)NC(=O)[C@H](CCC(N)=O)NC(=O)CC[C@@H](C)[C@H]1CC[C@H]2[C@@H]3[C@H](O)C[C@@H]4C[C@H](O)CC[C@]4(C)[C@H]3C[C@H](O)[C@]12C)C(=O)N[C@H](C(=O)N[C@@H](Cc1ccccc1)C(=O)N[C@@H](Cc1ccccc1)C(=O)O)C(C)C
[5]
  % Iext'n; seeded extension assay; 25 mole %: 56%
  % Inucl'n; nucleation assay; 100 mole %: 100%
  ΔLag; nucleation assay; 100 mole %: > 5 ratio
[2]
  % Inhibition of Plateau; nucleation assay; 33 mole %: 50%
  Fold Increase in Lag Time; nucleation assay; 33 mole %: 2.3 fold
[3]
  % Inhibition of Plateau; nucleation assay; 10 mole %: ~0%
  % Inhibition of Plateau; nucleation assay; 100 mole %: 100%
  Fold Increase in Lag Time; nucleation assay; 10 mole %: 2.1 fold
  Fold Increase in Lag Time; nucleation assay; 33 mole %: 2.6 fold
  Fold Increase in Lag Time; nucleation assay; 100 mole %: > 5 fold

## DAEFRHDSGYEVHHQKLVFFSNKGAIIGLMVGGVV [Aβ1-20, 26-40(Δ21-25)]
[1]
  % Inhibition of Plateau; nucleation assay; 100 mole %: ~0%
  Fold Increase in Lag Time; nucleation assay; 100 mole %: 2.37 fold

## Cholyl-KLVFF-OH [cholyl-Aβ16-20]
[5]
  % Iext'n; seeded extension assay; 25 mole %: 11%
  % Inucl'n; nucleation assay; 100 mole %: 72%
  ΔLag; nucleation assay; 100 mole %: 1.8 ratio
[2]
  Fold Increase in Lag Time; nucleation assay; 38 mole %: 3.4 fold
[3]
  % Inhibition of Plateau; nucleation assay; 10 mole %: 40%
  % Inhibition of Plateau; nucleation assay; 100 mole %: 100%
  Fold Increase in Lag Time; nucleation assay; 10 mole %: 2.4 fold
  Fold Increase in Lag Time; nucleation assay; 100 mole %: > 5 fold

## AEDVGSNKGAIIGLM [unmodified Aβ21-35]
[1]
  % Inhibition of Plateau; nucleation assay; 100 mole %: ~0%
  Fold Increase in Lag Time; nucleation assay; 100 mole %: ~1 fold

B2: cholyl-Aβ14-20 (peptide)
peptide: Cholyl-HQKLVFF-OH
SMILES: CC(C)C[C@H](NC(=O)[C@H](CCCCN)NC(=O)[C@H](CCC(N)=O)NC(=O)[C@H](Cc1c[nH]cn1)NC(=O)CC[C@@H](C)[C@H]1CC[C@H]2[C@@H]3[C@H](O)C[C@@H]4C[C@H](O)CC[C@]4(C)[C@H]3C[C@H](O)[C@]12C)C(=O)N[C@H](C(=O)N[C@@H](Cc1ccccc1)C(=O)N[C@@H](Cc1ccccc1)C(=O)O)C(C)C
[5]
  % Inucl'n; nucleation assay; 33 mole %: 70%
  ΔLag; nucleation assay; 33 mole %: 2 ratio
[2]
  % Inhibition of Plateau; nucleation assay; 33 mole %: 49%
  Fold Increase in Lag Time; nucleation assay; 33 mole %: 2 fold

## DAEFRHDSGYEVHHQ [unmodified Aβ1-15]
[1]
  % Inhibition of Plateau; nucleation assay; 100 mole %: 18%
  Fold Increase in Lag Time; nucleation assay; 100 mole %: ~1 fold
